Source: patent publication US11433139B2, “Peptide vaccines against interleukin-31” (Zoetis Services LLC, priority 2018, dated 2022)

Tests used:
feline IL-31 [1] = assay: Affinity of anti-IL-31 antibodies by surface plasmon resonance (Biacore), feline IL-31 surface; type: binding; conditions: IL-31 conjugated to the surface (FIG. 2)
Method in brief: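 IL-31 amine-coupled (NHS/EDC) at 5 μg/mL directly onto the SPR chip, quenched with ethanolamine; candidate mAbs flowed over as analyte. KD from 1:1 model fits; values below 1×10^−11 M are under the instrument's lower quantitation limit.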
Target sequence in this assay (as listed by the source): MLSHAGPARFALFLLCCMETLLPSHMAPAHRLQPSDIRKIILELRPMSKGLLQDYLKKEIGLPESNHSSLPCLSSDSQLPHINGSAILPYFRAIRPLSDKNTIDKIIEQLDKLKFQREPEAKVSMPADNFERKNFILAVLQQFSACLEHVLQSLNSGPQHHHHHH

feline IL-31 [2] = assay: Inhibition of feline IL-31 induced pSTAT3 signaling in feline FCWF4 macrophage-like cells; type: cell-based; conditions: 0.2 μg/mL feline IL-31, pSTAT3, FCWF4 cells (FIG. 3)
Method in brief: (§1)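 DH-82 cells primed with canine IFN-γ 10 ng/mL for 24 h, FCWF4 with feline IFN-γ 125 ng/mL for 96 h, then serum-starved 2 h. mAb pre-incubated 1 h with 1 μg/mL canine or 0.2 μg/mL feline IL-31, cells stimulated 5 min; pSTAT3 by AlphaLISA SureFire, IC50 as half-maximal signalling reduction.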

feline IL-31 [3] = assay: Inhibition of feline IL-31 induced pSTAT3 signaling in canine DH-82 cells; type: cell-based; conditions: feline IL-31, pSTAT3, canine DH82 cells (FIG. 3)
Method in brief: as §1
Target sequence in this assay (as listed by the source): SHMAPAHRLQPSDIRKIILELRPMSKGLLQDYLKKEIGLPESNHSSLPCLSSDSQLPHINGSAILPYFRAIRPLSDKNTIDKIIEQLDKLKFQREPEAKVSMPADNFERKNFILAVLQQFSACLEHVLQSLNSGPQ

canine IL-31 = target: T1, canine IL-31 (Canis lupus familiaris, UniProt A0A8I3S3D1); assay: Inhibition of canine IL-31 induced pSTAT3 signaling in canine DH-82 and feline FCWF4 cells; type: cell-based; conditions: canine IL-31; canine and feline cell types, cell type of the values not specified
T1 construct: made in house; host or cells: CHO cells (CHROMOS ACE system)
T1 sequence (A0A8I3S3D1 24-159): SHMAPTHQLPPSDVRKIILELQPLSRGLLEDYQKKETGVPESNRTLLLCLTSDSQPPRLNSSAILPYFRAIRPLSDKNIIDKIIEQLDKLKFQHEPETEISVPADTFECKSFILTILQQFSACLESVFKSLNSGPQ
Description: To identify candidates with inhibitory activity, antibodies were assessed for their ability to affect IL-31-mediated STAT3 phosphorylation in either a canine or feline cell-based assay. STAT3 phosphorylation was determined in canine DH-82 (ATCC® CRL-10389™) or feline FCWF4 macrophage-like cells (ATCC CRL-2787). DH82 and FCWF4 cells were primed with canine interferon gamma (R&D Systems, Minneapolis, Minn.) at 10 ng/mL for 24 hours or feline interferon gamma (R&D Systems, Minneapolis, Minn.) at 125 ng/mL for 96 hours, respectively, to increase receptor expression. Both cell types were serum starved for 2 hours prior to IL-31 and mAb treatment. Using two independent methods, all candidate mAbs were evaluated for their ability to inhibit either 1 μg/mL canine or 0.2 μg/mL feline IL-31 induced STAT3 phosphorylation. […] To ensure complex formation, a one hour co-incubation of mAb and IL-31 cytokine prior to cell stimulation was completed. IL-31 cell stimulation was carried out for five minutes. STAT3 phosphorylation was measured using AlphaLISA SureFire ULTRA™ technology (Perkin Elmer, Waltham, Mass.). In the case where antibody concentration and purity are unknown, hybridoma supernatants were qualitatively measured for their ability to inhibit STAT3 phosphorylation following a 1 hour co-incubation with […] IL-31. The potency of individual monoclonal antibodies defined by their ability to inhibit IL-31 mediated STAT3 phosphorylation in these assays was considered the key selection criteria for further advancement of select antibodies. The term potency refers to the IC50 value calculated from these assays and is the concentration of the antibody where signaling induced by IL-31 is reduced to one half its maximal value.

feline IL-31 [4] = assay: Cat pruritus challenge model, subcutaneous antibody then IL-31 challenge; type: in vivo; conditions: cats, 4 mg/kg subcutaneously day 0; 0.5 μg/kg i.v. IL-31 challenge days 7, 21, 28
Description: The efficacy of the fully felinized anti feline IL-31 mAb ZTS-361 was assessed for its ability to neutralize pruritic behavior in an IL-31 induced in vivo cat model. […] As shown in this graph, the variance of pruritic behavior scored for both T01 and T02 groups prior to IL-31 challenge varied little with the number of pruritic events observed between 0 and 10 within the 30 minute observation period. This study differed from the preliminary feline challenge model described above in section 1.13 in that on day zero cats were dosed with 4 mg/kg ZTS-361 subcutaneously without combination with feline IL-31 to generate a pre-bound complex. This represents a more rigorous assessment of efficacy as antibody ZTS-361 will be in circulation for seven days prior to the first IL-31 challenge requiring the antibody to have sufficient exposure to bind and neutralize circulating IL-31.
For this study, pruritic behavior was assessed on days 7, 21, and 28 for 1 hour following a 0.5 μg/kg intravenous challenge of the IL-31 protein.
Target sequence in this assay (as listed by the source): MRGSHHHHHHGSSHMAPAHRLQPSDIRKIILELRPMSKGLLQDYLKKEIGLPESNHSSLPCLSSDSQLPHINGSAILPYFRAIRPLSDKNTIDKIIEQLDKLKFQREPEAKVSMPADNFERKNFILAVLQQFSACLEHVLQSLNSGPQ

B1: ZTS-361: felinized anti IL-31 15H05 mAb, FEL_15H05_VH1 with Feline_HC_AlleleA_1, FEL-15H05-VL1_FW2 light chain (antibody, V domains shown)
VH: QVLLVQSGAEVRTPGASVKIFCKASGYSFTSYTIHWLRQAPAQGLEWMGNINPTSGYTENNQRFKDRLTLTADTSTNTAYMELSSLRSADTAMYYCARWGFKYDGEWSFDVWGAGTTVTVSS
VL: EIQMTQSPSSLSASPGDRVTITCRASQGISIWLSWYQQKPGNIPKVLINKASNLHIGVPSRFSGSGSGTDFTLTISSLEPEDAATYYCLQSQTYPLTFGGGTKLEIK
modifications: feline constant regions joined; Felinized variable heavy mAb sequence, from Mus musculus and Felis catus; Felinized variable light mAb sequence, from Mus musculus and Felis catus
affinity (KD) to feline IL-31 (feline IL-31 [1]): highly consistent with that of the mouse and chimeric form | potency (IC50) against feline IL-31 in feline FCWF4 cells (feline IL-31 [2]): highly consistent with values derived from the chimeric and mouse form | potency (IC50) against feline IL-31 in canine DH82 cells (feline IL-31 [3]): highly consistent with values derived from the chimeric and mouse form | IC50 against canine IL-31 (canine IL-31): proportionally higher | reduction in pruritus compared to vehicle placebo control (feline IL-31 [4]): significant reduction in pruritus
